Assay: soluble on expression in E. coli; label from the status in PepcDB or PDB records

Sequence | soluble on expression in E. coli
CLTRISRPWLVTSCIWNKQLIRRAVVWLCGLTGKPILKLTNKDYTENGLGELLAKYGSAYEVNIKLFNDIQHTITGWPGGKPNADDSSRPERALPYPKRVVIFSPHPDDDVISMGGTFHKLVNQGHDVHVAYQTSGNIAVGDEEVIRYVSYLRNVCRQYGHESSPILAKAEEVRHYLMHKKIEGDPEQEDIRFMKGTIRREEARTACRYLGLPEDHVHFLDLPFYETGLIRKNPLGEEDVRIIMALLEEIQPHRIFVAGDLADPHGTHRICLNAVLAAIDELKEESWFKEDCRVWMYRGAWAEWEIDYIEMAVPMSPDELRFKRNSILKHQSQMESAPFLGDDERLFWQRAEDRNRQTATLYEKLGLASYEAIEAFVQYRPVE | not soluble
DATWLPPSRWDDGIPGLMLDYNLNGTVSRNYQGGDSHQFSYNGTVGGNLGPWRLRADYQGSQEQSRYNGEKTTNRNFTWSRFYLFRAIPRWRANLTLGENNINSDIFRSWSYTGASLESDDRMLPPRLRGYAPQITGIAETNARVVVSQQGRVLYDSMVPAGPFSIQDLDSSVRGRLDVEVIEQNGRKKTFQVDTASVPYLTRPGQVRYKLVSGRSRGYGHETEGPVFATGEASWGLSNQWSLYGGAVLAGDYNALAAGAGWDLGVPGTLSADITQSVARIEGERTFQGKSWRLSYSKRFDNADADITFAGYRFSERNYMTMEQYLNARYRNDYSSREKEMYTVTLNKNVADWNTSFNLQYSRQTYWDIRKTDYYTVSVNRYFNVFGLQGVAVGLSASRSKYLGRDNDSAYLRISVPLGTGTASYSGSMSNDRYVNMAGYTDTFNDGLDSYSLNAGLNSGGGLTSQRQINAYYSHRSPLANLSANIASLQKGYTSFGVSASGGATITGKGALVPR | soluble
DCSPLSLLFGHSDAVVQALYSNNPVLHCLNSALAQTAKALAGTRRDLRVLEVGAGTGATTRHLLPMLEEHLSEYRFTDVSNLFLTQAQEHFAAWPQLTCSMLDVNQPVDFSQHPAQGYDLVVAVNVMHDAAHVTRSLKRLHRLLRSGGHLLLLEATERDSALQLASIGFIEGLSNFEDERSEDDKAMLDLPRWRTAVQASGFSWVMNWPQQADDSM | not soluble
DDGDCKNIYRYSPKDGKFEKLNLETDVTSAFALSEYNPGIAAYIGQSDYNAGVAYLYDMKKKTSSLLADPMKPILEKIELGKTEPWNFTASDGTVITGKMCLPPNFDPNKKYPMIVYYYGGTTPTTRGISNPYCAQLFASRDYVVYVIQPSGTIGFGQEFSARHVNAWGKRTADDIIEGTKQFCKEHPFVDEKKIGCLGASYGGFMTQYLQTQTDIFAAAVSHAGISDVTSYWGEGYWGYSYNAIAAADSYPWKDPDLFTKQGSLFNADKINTPLLLLHGTVDTNVPIGESIQLFNALKILGKTVEFVTVDGENHFISDYDKRIKWHNSIMAWFARWLQ | not soluble
DEPNQPSTPEAVTKTVTIDASKYETWQYFSFSKGEVVNVTDYKNDLNWDMALHRYDVRLNCGESGKGKGGAVFSGKTEMDQATTVPTDGYTVDVLGRITVKYEMGPDGHQMEYEEQGFSEVITGKKNAQGFASGGWLEFSHGPAGPTYKLSKRVFFVRGADGNIAKVQFTDYQDAELKKGVITFTYTYPVK | soluble
DHLHVIGDIYDRGPAPDKIMDRLMSYHSLDIQLGNHDMIWLAAYSGSLACLANVVRICARYGNLDLLEERYAIDLTALKKFSLETYKENPAFAPKKNPYRALTEAEKQVAMRVQQAIAIIQEKLEGQIIGRRPDFNLAHRLRLDKIQGETITFDECRYTLINSCFQTVSEEQPYQLTREEKQIIDDLLTQFQSSPRLTKHMRFLMEKASLYLVYNQNLLIHGCLPLNADGTFQAYTFKGHSYSGKALVDFFQEMLEEAYAQPASTDDYATDCLWYLWCGEGSSLFGKRAMKTFERYFLAEKETHYEEKNPYYSLRDTVEVCERILDEFEVTGENRHIINGHTPVKRTKGESPIKANGTLLVIDGGFSKSYQTITGIAGYTLLYNS | not soluble
DIELTQTPVSLSASVGETVTITCRASENIYSYLAWYQQKQGKSPQFLVYNAKTLGEGVPSRFSGSGSGTQFSLKINSLLPEDFGSYYCQHHYGTPPLTFGGGTKLEIKREQKLISEEDLM | soluble
DIGCYTLGIQSGTVETTLCMGSSISIASGLYHAGEKRPICCSIGDSTFFHTGMNSLLNAVFNKANITVTILDNRITAMTGHQPNPGVGFTVTGEPTVEVSLAELCKAMGAGFVTVVDPYNLEETQEAFKAAKEFEGTAVVIAKQPCVISGKRAGI | not soluble
DKQKALKKIAKCLELGNSANINEAANAIKMAHNLMLKYGLDKDDIEFIKMGKTQSTHLLPAAISSGILRVIRGINTRFGVEAVLLNHKGLKRVEFIGEADRAIFAAFAFDIIYREMNEQTGQFRNSFAGTGTSSLEVTRRVNSFVSGWIEGALEKLPIITPDEDSMNKINSYIDKEFENIDRETFKQQLREAMKNLTEDYETGLKKGRRVSVNRPIHGAQAPKLLK | not soluble
DLHNMLLTRNQELDVAYQTIRQDLESAGDLMRQLLPVEQQIGATKLSYSYLPCSQLGGDMLGYAALDEQHVAFYVFDVSGHGISSALMSFSIQKTLSRSCGPESVTTDLVEGEYVVSEPNVVVERLNLRYQQTPDSQLYFTIVYAVLNTQTGKLRYCTAGHPKFLWRHQSEATIDMVGDENFIVGALAPMQYKGGEITLEPNDSIWCFSDGVVEARYENEFFSVNRLIANVQSVSGLPFEAQVSSVVESIKRWQVKEELDDDLTLLQLQWFGPNTSTCEGEDD | not soluble
DLPIADVQGSLDTRHIAIDRVGIKAIRHPVVVADKGGGSQHTVAQFNMYVNLPHNFKGTHMSRFVEILNSHEREISVESFEEILRSMVSRLESDSGHIEMAFPYFINKSAPVSGVKSLLDYEVTFIGEIKHGNQYSFTMKVIVPVTSLCPCSKKISDYGAHNQRSHVTISVRTNSFIWIEDIIRIAEEQASCELYGLLKRPDEKYVTERAYNNPKFVEDIVRDVAEVLNHDDRIDAYIVESENFESIHNHSAYA | not soluble
DLRFFGDFVLEGDARLGEVAALYGLKLDGIDPGMPLSQFIVQKNRGEPVVGDQIEWNGTIWTVAVMDGNKIQKVGVKFPEGTRPGPGLFL | not soluble
DLYDDDDKDPTLMKISRGLLKTILEAAKSAHPDEFIALLSGSKDVMDELIFLPFVSGSVSAVIHLDMLPIGMKVFGTVHSHPSPSCRPSEEDLSLFTRFGKYHIIVCYPYDENSWKCYNRKGEEVELEVVEKD | soluble
DNSVDLYFLMGLSGSAQGHLSNVQTLGSDLLKALNEISRSGRIGFGSIVNMTFQHILKLTADSSQFQRELRKQLVSGKLATPKGQLDAVVQVAICLGEIGWRNGTRFLVLVTDNDFHLAKDKTLGTRQNTSDGRCHLDDGMYRSRGEPDYQSVVQLASKLAENNIQPIFVVPSRMVKTYEKLTTFIPKLTIGELSDDSSNVAQLIRNAYSKL | soluble
DRETAPTIKINQITLRYSANQEPVLSGVSADIESGDCVAVIGPNACGKTSLLLSLLGVVEPQAGFIMVNNKNLKQYDPETFREYAGYCPAEPDLFPGTLADNLRIAKPDATDEELIAALKHAGGESLFIALNSNLNIMLENNASNMLSAVEGSYINLARAFLKKSNFIILDEPLANRNPQARKAFSNTILALKGKATIVFSSHDPELIKLADKVIVLDKGSVVYAGPIPEKNSQEMESSNHE | not soluble
DSDVEIATIALLDTVQPAHLAPDTKEETVKRWERYSAFAKKTYGLDFPVPYELLETAGEDALLAMMAEFLSTTDATEHGLSAGVLEHQRASFVDNRILDRMDMQRWANVKIPVMLFRAERMHDGAIELEPAYAEIEPDGGWSAIVEDLVIIQLSGDHLAVVDEPEIGKVGVALTNRIEQLQGK | not soluble
DVQLVESGGGSVQAGGSLRLSCAVSGYKDRNYCMGWFRRAPGKEREGVAVIDSSGRTAYADSVKGRFTISRDVALDTAYLQMNSLKPEDTAMYYCAAGWSSLGSCGTNRNRYNYWGQGTQVTVSSRGRHHHHHH | soluble
DVSGTVCLSALPPEATDTLNLIASDGPFPYSQDGVTFQNRESVLPTQSYGYYHEYTVITPGARTRGTRRIITGEATQEDYYTGDHYATFSLIDQTC | soluble
DYSYLFGQGGTELFGEFAGAANGAVGTINGLRYTHPVGGSYMLVGRYIPADYWSYYRGAFARYSRPGNEWGVMGRAAWELPSDRTVRAFADYYGSFVPRFGRKEKTEALYWMFEGEKRLSALSWSCRIRGTADKRYRRSLAVRLRGRYMFDERWRLMASLQWSRSNSFDRELQTWQAPTGGKSFALRADYSGGKLLRVCSMDAVAFDTDSFADRLYEAVHNPRHHYSSAFFYGRGVRLGVFVRIAPLPQVEVESRIDHLLRRDTDTIGSAGELIRGQARTHLFMTVRYR | not soluble
EAMKIKNQFATWDYEKKLQSMEHDSSIQKQLLATQRAQIEQRLAAQKAALEAERDAAGYHAAAGEADNEGVRQAYDALAQDSARRARDLAETAQRGKSQLDEIVGRLKDLADRSAANIINQGINQTVVVKLEKTGRLHTDQDIAKALEETLNAVKGLEARVEMVEAARAPSALEAAHSQL | not soluble
EAQIYGYVEKATLIDQNLTLSAKLDTGAKSASLHAVNITEIEKKGIPYLRFTVPTKTGDYSFEGEYVGKVKIKVRSSETNPGLLRTTPIKRPVVLLNIKLGDKVRTIKVNLTNRKRFLYPLLLGRDAIIDFNGAVDPALTFTTKSK | not soluble
ECPVFEPSWAEFRDPLGYIAKIRPIAEKSGICKIRPPADWQPPFAVEVDNFRFTPRIQRLNEL | not soluble
EDRSVHFDSMSNGQGAASALPIFAEFLKRVYADPKLGYTTEEKFEFPQDFQPCMMDQNVEYFDAGGGEVVEPLPEILVELP | not soluble
EGDKVTGEVQQVEDKQVVVHINGGKFNGIIPISQLSTHHIENPSEVVKVGDEVEAYVTKIEFDEENDTGAYILSKRQ | not soluble
EGSENLFITGDNLEALKLLQESYLGKIDMIYIDPPYNTGKDFVYQDNFKKTKKENDLSEGILDEEGDRLVKNEKSNGRYHSDWLTMIYPRLKLARNLLSDSGIIFVSIDENEIANLELLLTEIFGENNLAGTIVWDKRNPKGDSKGVSMQHEYIVAAAKNINIFSEFKEFKRPKKNAEIIL | not soluble
EHDNTSYICKKIDEDEYVLSARLEIEKVNEMFGLDLPESDDYLTVGGLILNQYQSFPKLHELVRVGRYQFKIIKVTATKIELVRLKVME | not soluble
EIEEIKITMDVLVASEDVMVTVTKEGYVKRTSLRSYAASNGELPGMKEGDYLLGRYEMNTQDTLLLFTKKGNYLYLPVHQLPDIRWKDNGQHVANLVTVDKDDDILTTLAVKEFSEE | soluble
EIHHRIKNNLQVICSLLSLEAERFSDEKMLETLKESQNRVASMALIHEELYKGDKNDTLDFAAYLRKLTADLFSSYNLGNDNISLKMDL | not soluble
EISGFGQCLVWVQCSFPNCGKWRRLCGNIDPSVLPDNWSCDQNTDVQYNRCDIPEETWTGLE | soluble
EKDSQSPKIRQKYLRQYPELNSLIPAVVTEVREKEATAALQNGQIIIIPWEGMSWARPALKRGGWVGKSPTKAQQVVAAGDIIYVHPTEKSWQLAQIP | not soluble
